Literature values, collected in publication PMC9858354.
pKd: −log10 of the molar value.

Molecular target: CCRL2 (Homo sapiens) (UniProt O00421)
Test: radioligand

Chain of chemerin (Q99969 21-157): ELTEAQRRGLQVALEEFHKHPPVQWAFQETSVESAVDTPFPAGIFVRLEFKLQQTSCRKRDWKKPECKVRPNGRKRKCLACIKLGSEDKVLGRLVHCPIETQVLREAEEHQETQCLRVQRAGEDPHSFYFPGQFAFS
Chain of CCRL2 (Homo sapiens) (O00421 whole entry): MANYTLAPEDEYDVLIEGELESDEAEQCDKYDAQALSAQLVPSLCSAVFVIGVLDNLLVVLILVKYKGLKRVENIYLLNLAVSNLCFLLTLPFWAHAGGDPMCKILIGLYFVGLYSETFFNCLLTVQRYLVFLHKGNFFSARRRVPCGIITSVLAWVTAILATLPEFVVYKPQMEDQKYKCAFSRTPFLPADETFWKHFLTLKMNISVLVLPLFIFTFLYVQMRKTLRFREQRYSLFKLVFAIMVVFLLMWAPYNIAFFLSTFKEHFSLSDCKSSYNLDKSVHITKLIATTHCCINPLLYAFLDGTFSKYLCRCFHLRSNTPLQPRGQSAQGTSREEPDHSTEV

pKd: 8.63
Substance: chemerin (from UniProt Q99969)
